Results as given in patent publication US20220298218A1 (ANTAG THERAPEUTICS, published 2022).

Molecular target: T1, human GIP receptor (human, UniProt P48546 22-466)
T1 sequence (looked up): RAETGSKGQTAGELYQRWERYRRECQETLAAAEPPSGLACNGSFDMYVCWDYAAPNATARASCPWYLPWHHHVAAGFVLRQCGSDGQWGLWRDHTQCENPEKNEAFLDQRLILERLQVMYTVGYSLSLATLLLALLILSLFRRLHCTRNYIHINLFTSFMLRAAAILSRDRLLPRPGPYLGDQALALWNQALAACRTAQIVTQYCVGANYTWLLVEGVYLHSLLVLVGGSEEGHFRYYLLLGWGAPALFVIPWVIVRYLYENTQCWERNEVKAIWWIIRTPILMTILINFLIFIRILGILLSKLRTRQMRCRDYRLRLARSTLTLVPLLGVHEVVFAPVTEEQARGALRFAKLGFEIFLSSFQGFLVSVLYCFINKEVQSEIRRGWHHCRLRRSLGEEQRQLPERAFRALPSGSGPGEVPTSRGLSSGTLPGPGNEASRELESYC
Experiment: cell-based or functional assay

Binder	cAMP antagonism [nM]	cAMP antagonism % inhib [%]	cAMP antagonism log [log M]
TFISDYKIAMDKIHQQDFVNWLLAQKGKKN (HELM PEPTIDE1{T.F.I.S.D.Y.K.I.A.M.D.K.I.H.Q.Q.D.F.V.N.W.L.L.A.Q.K.G.K.K.N}|PEPTIDE2{[O=C(O)CCCCCCCCCCCCCCC(=O)[*:2]].[gGlu]}$PEPTIDE1,PEPTIDE2,7:R3-2:R2$$$V2.0; N-terminus assumed; SMILES CC[C@H](C)[C@H](NC(=O)[C@H](CCCCNC(=O)CC[C@H](NC(=O)CCCCCCCCCCCCCCC(=O)O)C(=O)O)NC(=O)[C@H](Cc1ccc(O)cc1)NC(=O)[C@H](CC(=O)O)NC(=O)[C@H](CO)NC(=O)[C@@H](NC(=O)[C@H](Cc1ccccc1)NC(=O)[C@@H](N)[C@@H](C)O)[C@@H](C)CC)C(=O)N[C@@H](C)C(=O)N[C@@H](CCSC)C(=O)N[C@@H](CC(=O)O)C(=O)N[C@@H](CCCCN)C(=O)N[C@H](C(=O)N[C@@H](Cc1c[nH]cn1)C(=O)N[C@@H](CCC(N)=O)C(=O)N[C@@H](CCC(N)=O)C(=O)N[C@@H](CC(=O)O)C(=O)N[C@@H](Cc1ccccc1)C(=O)N[C@H](C(=O)N[C@@H](CC(N)=O)C(=O)N[C@@H](Cc1c[nH]c2ccccc12)C(=O)N[C@@H](CC(C)C)C(=O)N[C@@H](CC(C)C)C(=O)N[C@@H](C)C(=O)N[C@@H](CCC(N)=O)C(=O)N[C@@H](CCCCN)C(=O)NCC(=O)N[C@@H](CCCCN)C(=O)N[C@@H](CCCCN)C(=O)N[C@@H](CC(N)=O)C(=O)O)C(C)C)[C@@H](C)CC) [AT457]	14	100	-7.9
TFISDYKIAMDKIHQQDFVNWLLAQKGK (HELM PEPTIDE1{T.F.I.S.D.Y.K.I.A.M.D.K.I.H.Q.Q.D.F.V.N.W.L.L.A.Q.K.G.K}|PEPTIDE2{[O=C(O)CCCCCCCCCCCCCCC(=O)[*:2]].[gGlu]}$PEPTIDE1,PEPTIDE2,7:R3-2:R2$$$V2.0; N-terminus assumed; SMILES CC[C@H](C)[C@H](NC(=O)[C@H](CCCCNC(=O)CC[C@H](NC(=O)CCCCCCCCCCCCCCC(=O)O)C(=O)O)NC(=O)[C@H](Cc1ccc(O)cc1)NC(=O)[C@H](CC(=O)O)NC(=O)[C@H](CO)NC(=O)[C@@H](NC(=O)[C@H](Cc1ccccc1)NC(=O)[C@@H](N)[C@@H](C)O)[C@@H](C)CC)C(=O)N[C@@H](C)C(=O)N[C@@H](CCSC)C(=O)N[C@@H](CC(=O)O)C(=O)N[C@@H](CCCCN)C(=O)N[C@H](C(=O)N[C@@H](Cc1c[nH]cn1)C(=O)N[C@@H](CCC(N)=O)C(=O)N[C@@H](CCC(N)=O)C(=O)N[C@@H](CC(=O)O)C(=O)N[C@@H](Cc1ccccc1)C(=O)N[C@H](C(=O)N[C@@H](CC(N)=O)C(=O)N[C@@H](Cc1c[nH]c2ccccc12)C(=O)N[C@@H](CC(C)C)C(=O)N[C@@H](CC(C)C)C(=O)N[C@@H](C)C(=O)N[C@@H](CCC(N)=O)C(=O)N[C@@H](CCCCN)C(=O)NCC(=O)N[C@@H](CCCCN)C(=O)O)C(C)C)[C@@H](C)CC) [AT456]	60	85	-7.2
